Data published in the DeepSol protein solubility set.

assay: soluble on expression in E. coli; label from the status in PepcDB or PDB records

| Sequence | soluble on expression in E. coli |
| --- | --- |
| MSLSTEPLASRMRPKNIDEIISQQHLVGPKGIIRRMVDTKRLSSMIFYGPPGIGKTSIAKAISGSTQFKFRQLNAVTNTKKDMQLIVEEAKMSGQVILLLDEIHRLDKAKQDFLLPHLENGKIVLIGATTSNPYHAINPAIRSRAQIFELYPLDQDDIRLALDRAINDKERGLSTYHPIVDEDAIEYFSTQSQGDVRSALNALELAVLSAHIGEENERHITLDDAKDCLQKGAFVSDKDGDMHYDVMSAFQKSIRGSDVNAALHYLARLIEAGDLPTIVRRLLVISYEDVGLASPNAGQRTLAAIQSAERLGFPEARIPLSQAVIELCLSPKSNSGITAIDKALGDIRNGHIGQIPDYLKDGHYSGAKKLGRAIGYKYPHNYENGHVVQQYLPEKLKNRVYYEPKTTSKSEQQFKTIYDNLRNKEGHHHHHH | not soluble |
| MSLSTIKDIARVAGVSVATVSRVVNNDPKVKEKTKLKVTKVMLDLNYTPNANARALVTQKNTTIGVIIPSLTDPFFASLANGVEQVARQQSMQLLLSTGLVSAESERQAINLLRERRCDVMVVHSKKLTDDELIALSEQIPGLVLIDRHIEQISHRCVWLDNLEGGKIAARHLLALNHQKFASISSKYQIEDPGLRLEGFTRELTGAGFAIDKELIEYGEPNLQGGEIATQHLLSSGKTFSALFVYNDAMAIGAISTLEDNGYRVPQDISVIGFDDVLLSRYSRPKLSTLNYPIEEMAQQAANLAIELTKERKAAKDEYKVESKTHKYVPRLVKRESTSLEGHHHHHH | soluble |
| MSLSVNDRDTSALRYFDFKDDEFVKPSPTEFNSWINREIVTKHHPHHNGYDEIYTKNQPQVIEGDFLYGDVRVKLANEWVSIYEYSLDSSSPSWNKIGRAVTDTNGHIKYNIPNNMKLSYGMHLIKLYVEGDGTSANMYIQVLDNTKKYVVFDMDGTLTTTDFEDVKQYAGEFFNSNYVAKMYPDVDNVVKYYASKGYGILYLTARPYWLSEESQTWLWKNGFPMGLLHTYTGGDVLLGEEAESFKAGYLNQLKSQGIEFDYGFGNEKTDVEAYSNIGIAKSNIFTIGKNRGIDGSVSIVSYTDYLKQLSGNEGHHHHHH | soluble |
| MSLSWRLQTGSEKAELQELNARLYDYVCRVRELERENLLLEEELRSRLSREDRWAEDQALYAEEARSLRQQLDELNWSTALAEGERDALRRELLELQREGVEAGTARSRLDAELGAQRRELEEALGARAALEALLGRLETERRDLDAAHERQVRDLRARAASLTMHFRARATSPAAPPPRLRDVHDSYALLVAESWRESVQLYEDEVRELEQALRRGQESRLQAEDEARLCAQEADALRNQALELEQLRARLEDELLRMREEYGMQAEERQRVIDSLEDEKEALTLAMADRLRDYQELLQVKTGLSLEVATYRALLEGESNPEILIWTENIENVPQEPRNTSYRYTNSVLQRKNEKNLFPRREGHHHHHH | not soluble |
| MSLSYRAHGLPVLENLLEQDFSASGPNQKWAGDITYLRTDEGWLYLAVVIDLWSRAVIGWSMSPRMTAQLACDALQMALWRRRRPESVIVHTDRGGQYCSGDYQALLKRHNLRGSMSAKGYCYDNACVESFFHSLKVECIHGERFSSREIMRATVFNYIECDYNRWRRHSACGGLSPEQFENHNLAEGHHHHHH | not soluble |
| MSLSYSNILVAVAVTPESQQLLAKAVSIARPVKGHISLITLASDPEMYNQLAAPMLEDLRNVMQEETQSFLDKLIQDAGYPVDKTFIAYGELSEHILEVCRKHHFDLVICGNHNHSFFSRASCSAKRVITSSEVDVLLVPLTGDEGHHHHHH | soluble |
| MSLTAPRLRILSVEVRERMMPFVRPFRFGPSVVEAAPQAFVRIELEVEGAGRAVGQAAEMMMPRWFDKAPHKSPEQTVDDLRRVLLHAAALYADAPWSTAYGLSADAAAMQLGWAEGRGIPALAAHFGPALLDKAVVDALLRALSLTFPEGLSRNVMGLDARNARDLSPEQIPALLASLTPVPAVAVRHTIGLLDPLEGPHGLSAEIAAARLRFFKIKIGGDLAADLDRLAAITALLTHLAPDFRATLDANEQYDPERLCQLAAGLDTPALRPLKARLLYIEQPFDRTETFTRPLPPALDGIPVIIDEADGGLDAFPRAIALGYRGVSSKACKGLYKSILNAVRVQAGEGTFLTAEDLTCQPGLGLQQDLALVATLGLTHGERNGHHYVAGFGPAPEEEAGAFAAAHPDLYRLTDAGAALDVSRGVLATASLLSAPGFAGRAEPDWASLAPVTEGHHHHHH | not soluble |
| MSLTAPRTPGTPRTPRTEHLVLPGVLTAAEAAATVRGILAVQREDGAIPWFRGHHLDPWDHVEAAMALDTADEHEAAERAYAWLARHQNQDGSWYAAYADGDFADVTDRGRETNFVAYVAVGVWHHYLATGDDLFLERMWPVVHAAVEFVLRLQQPGGQIGWRRGDDGTDTTDALLTGSSSVHHALRCALAIAEQREEPQPDWELAAGALRHAIRRHPERFLDKGRYSMDWYYPVLGGALTGTEARSRIQESWDRFVVPGLGVRCVVPNPWVTGGESAELALALWAVGESDHALEILQSIQHLRDPDSGLYWTGYVFEDETVWPRELTAWTAGSLLLAVAALGGHEATCQVFAGERLPRGLDPDCCVEGHHHHHH | soluble |
| MSLTCGSGFGGRAFSCISACGPRPGRCCITAAPYRGISCYRGLTGGFGSHSVCGGFRAGSCGRSFGYRSGGVCGPSPPCITTVSVNESLLTPLNLEIDPNAQCVKQEEKEQIKSLNSRFAAFIDKVRFLEQQNKLLETKLQFYQNRECCQSNMEPLFEGYIETLRREAECVEADSGRLASELNHVQEVLEGYKKKYEEEVSLRATAENEFVALKKDVDCAYLRKSDLEANVEALIQEIDFLRRLYEEEIRILQSHISDTSVVVKLDNSRDLNMDCIIAEIKAQYDDIVTRSRAEAESWYRSKCEEMKATVIRHGETLRRTKEEINELNRMIQRLTAEVENAKCQNSKLEAAVAQSEQQGEAALSDARCKLAELEGALQKAKQDMACLIREYQEVMNSKLGLDIEIATYRRLLEGEEQRLCEGIGAVNVCVSSSRGGVVCGDLCVSGSRPVTGSVCSAPCNGNVAVSTGLCAPCGQLNTTCGGGSCGVGSCGISSLGVGSCGSSCRKCEGHHHHHH | not soluble |
| MSLTEIRLVDVTMRDGNQSLWGATGLNTAHMLQAAALTEACGFRAIDFTSSSHMAVAVRYFQNNPWERLRRMAAAMPTTPLQFITTGLRFIAWQQADPEFMRLVYRALQANGVGRFVLLDPMHEVPAVIEAAKLVKEEGNAEVMAALTFTLSEIHTDQFYADFARAVGQSPNIDLFYIKDPAGLLSVDRARTLVPAVKAVIGNRPLEIHAHTTVGQGMMASLEAAKLGISAIHVGVGPGGDGSSLPEANRMVANLEEAGFSVGVDKAALKRLTTYWERVALAEGLPPGTPQNFDASFLRHQIAGGVMTTIARQLDELGLSDRMGAVIEETGQVRADLGFPIMVTPFPQMVMTQALFNVIGERRYAQVSDQVIRYCMGKFGKPTSPVDREVLATIMDRPRSRELEDEPMFPALGDLRRQFGSHLPDEEFLLRAVMPGEQVDAMLAAGPSRATYSPQAAPILSLLRQLAARPDARDIVIEREGFRLALHAGASLEGHHHHHH | not soluble |
| MSLTENKELRDILGGYHDNIKSKIMENKLDEAIYLVDSLSATFKLPSSGYDRSSCTPYNNEVSEKYGIEEYVNASLIPTPRTLFIAAQNPKDEKRDVFTDLLMKSNTKLVVSLIDDPRYFEEEWLQDRKVIKYMNKDLFIDEIYNIRGRNIRRLRYINWVDFSVITREEMEVFHSYFDSVRTEVVLVHCIAGVGRTGTFIMYDILKRMENITLDTFIDVFLNLRSKRAHLVTNKIQLEFLKNIFLESEGHHHHHH | soluble |
| MSLTERVLVTGGGGFVACHLIQQLLASGNVVNTTVRNLTNRAKVLPLLTLQKQHPGKLYLFEADLLVDGAFDAPMHDCTVVHHVASPFLLPEKIKDGRREMLEPALLGTRNVLSSVDKTPSVLRVVMTSTVGAIFGDYIDVLHMKNKTLTEDYFNTSSTLETNPYHYAKVEAEKEAWRICEKQTRWSLVTINPGMILGPSLTPASDSGSLFLLDEMFRGYFFYGMPDLSLTTVDVRDVAAAHIIAANKVDAQGRYILAEQHMISFVEIAGIVRRLHRRPWLLPRYRIPDAIVRLIGPFFGLTQDYLSKHLGIRFVVDNQRSLNDLGIKYRSITETLTDHYRCWDMQRQLNEGHHHHHH | soluble |
| MSLTESARIDGVSLYEIVIPMKIPFQISSGTCYTRRSLVVEIREGDLFGYGESAPFEEPFYLGETLETTKVILKNHLLPMILGKEPLSIEEFNHLIKNGIRGNHFARCGVENAYWDLIAKKNKISLKAMIEKKMKNLGVKQEYLASNNYIESGAALGIPEDGRIETLIHQVEESLQEGYRRIKIKIKPGWDVEPLQETRRAVGDHFPLWTDANSSFELDQWETFKAMDAAKCLFHEQPLHYEALLDLKELGERIETPICLDESLISSRVAEFVAKLGISNIWNIKIQRVGGLLEAIKIYKIATDNGIKLWGGTMPESGLGARFLISLASFRGFVFPADVAASEKWYGKGNDLVENTMTDGKIYVPDEPGASFDMTLSHLEALGKKIWESQRGEGHHHHHH | soluble |
| MSLTFSILARDPNNGRFGVAVATCHLAVGSTVPHIRSGVGAVATQAHTNPYLGICGLERLEHHADAQDVLNSLLLDDPQRDWRQFHLIDLDGRTACWTGVECGGWAGHRHHPNLSVAGNCLAGEVVLEAMEQTFLTSDPNWKLGRRLMTALQAGEQAGGDQRASSCTSAALQVSGEAAFPLLDLRVDFRSGAVEELMELYERSQDRWAQQWRDELLELPMLNRLVAEGHHHHHH | soluble |
| MSLTHAILFDLDGTLVDHASAARAALHAWSPTVGVDTDVERWIELDKWGFARFERGETTHLGQRRDRIRAYLNRELDDATCDDIYSGYLKAYEQNWTAYPDAKGVLDRAVATGAPVGILTNGAAPMQQDKLDRTGLGLPELVMLAASTLDSAKPRPEMYARALTHLGARTATIIGDDWTNDVAAPRELGWNALYLDRSGTDPRADIHSLDELFHEGHHHHHH | soluble |
| MSLTHCKNQHCGGELGDYTGYIESPNYPGDYPANAECVWHIAPPPKRRILIVVPEIFLPIEDECGDVLVMRKSASPTSITTYETCQTYERPIAFTSRSRKLWIQFKSNEGNSGKGFQVPYVTYDEDYQQLIEDIVRDGRLYASENHQEILKDKKLIKALFDVLAHPQNYFKYTAQESKEMFPRSFIKLLRSKVSRFLRPYKEGHHHHHH | not soluble |
| MSLTIYLMRHGQTYFNLWHKIQGWTDSPLTEEVIKQAKEIGRYFRENNINFDKGYSSTSERASDTLELATDHQLPYRRLKGLKEEYFGSFEAEDERLNPPVPYEDFFVKYGGESEDQVKMRMHDTMLKIARENADNSNILIVSHAGAIFNFLSTINMSIDQLFKIGFTNASVAKIEFKNDQFKVVEIINKKNNKFEVTQVNEGHHHHHH | soluble |
| MSLTKAYTIVIKLGSSSLVDESTKEPKLSIMTLIVETVTNLKRMGHKVIIVSSGGIAVGLDALNIPHKPKQLSEVQAIAAVGQGRLIARWNMLFSQYGEQTAQILLTRNDILRWNQYNNARNTINELLAMGVIPIVNENDTLSISEIEFGDNDTLSAITAALVGADFLFLLTDVDCLYTDNPRTNPDARPIVLVPELSEGLPGVNTSSGSGSEVGTGGMRTKLIAADLASNAGIETIVMKSDRPEYVPKIVDYIQHHFRPPRHIGNGTQQQFLDLQDTELEQLRRYDVPMHTKFLANDNKHKLKNREFWILHGLITKGAIIIDENSYDKLLSKDMASLTPNAVIEVRDNFHELECVDLKIGQRLPNGELDISKPIQSVGCVRSNYTSLELAKIKGLPSEKIHDVLGYSVSEYVAHRENIAFPPQFEGHHHHHH | not soluble |
